Measured values from US20240368280A1 (DEUTSCHES KREBSFORSCHUNGSZENTRUM STIFTUNG DES FFENTLICHEN …, published 2024).
Blank lines part the entries; values can stand above or below the binder they belong to.

Tests used:
Human Fcγ receptor IIa [1] = molecular target: T1, Human Fcγ receptor IIa (human, UniProt P12318 36-218, limits assumed); assay: SPR (Biacore T200), His-tagged FcγR captured via anti-His IgG, antibody as analyte, steady-state
T1 construct: Bought protein; also called Fcγ RIIa
T1 sequence (looked up): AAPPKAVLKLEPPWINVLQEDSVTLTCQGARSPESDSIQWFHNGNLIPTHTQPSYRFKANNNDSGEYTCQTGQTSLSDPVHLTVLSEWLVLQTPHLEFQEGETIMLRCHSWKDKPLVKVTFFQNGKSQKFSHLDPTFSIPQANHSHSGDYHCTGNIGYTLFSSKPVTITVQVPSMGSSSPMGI
Experimental: (§1) Binding assays were performed on a Biacore T200 instrument (Cytiva) at 25° C. using assay buffer HBS EP+supplemented with 500 mM NaCl. Fcγ receptors were captured via anti-penta his-tag IgGs (“His capture kit”, Order No. 2895056, Cytiva) covalently amine coupled to a Series S CM5 sensor chip (Cytiva). The amine coupling was carried out according to the manufacturer's instructions using 1-ethyl-3-(3-dimethylaminopropyl) carbodiimide hydrochloride (EDC), N-hydroxysuccinimide (NHS) and ethanolamine HCl, pH 8.5 (“Amine Coupling Kit” BR-1000-50, Cytiva.). Human Fcγ receptor I (R&D Systems, Order No. 1257-FC), Fcγ receptor IIa (R&D Systems, Order No. 1330-CD/F), Fcγ receptor IIb/c (R&D Systems, Order No. 1875-CD), Fcγ receptor IIIa (R&D Systems, Order No. 4325-FC) and Fcγ receptor IIIb (R&D Systems, Order No. 1597-FC) were captured to ˜30 RU.
(§2) Anti-CEACAM6 engineered antibodies were used as analytes in a concentration series from 0.04-25 μM in multi cycle kinetics mode. The sensor surface was regenerated with glycine pH 1.5 after each analyte injection. Obtained sensorgrams were double referenced (subtraction of reference flow cell signal and buffer injection) and were fitted to a 1:1 Langmuir binding model to derive steady-state affinity data using the Biacore T200 Evaluation software.

Human Fcγ receptor IIb/c [2] = molecular target: T2, Human Fcγ receptor IIb/c (human, UniProt P31994 46-217); assay: as above
T2 construct: Bought protein; also called Fcγ RIIb/c
T2 sequence (looked up): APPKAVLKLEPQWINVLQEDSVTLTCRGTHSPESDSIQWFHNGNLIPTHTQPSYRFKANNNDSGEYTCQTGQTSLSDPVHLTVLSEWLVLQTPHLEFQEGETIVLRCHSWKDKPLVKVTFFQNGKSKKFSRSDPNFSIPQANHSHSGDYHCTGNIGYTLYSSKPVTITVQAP
Experimental: as §1, §2

Human Fcγ receptor IIIb [3] = molecular target: T3, Human Fcγ receptor IIIb (human, UniProt O75015 20-208, limits assumed); assay: as above
T3 construct: Bought protein; also called Fcγ RIIIb
Experimental: as §1, §2

Human Fcγ receptor I [4] = molecular target: T4, Human Fcγ receptor I (human, UniProt P12314 16-288); assay: SPR (Biacore T200), His-tagged FcγR captured via anti-His IgG, antibody as analyte 0.04-25 µM, steady-state affinity
T4 construct: Bought protein; also called Fcγ RI
Experimental: as §1, §2

Human Fcγ receptor IIIa [5] = molecular target: T5, Human Fcγ receptor IIIa (human, UniProt P08637 17-208, limits assumed); assay: SPR (Biacore T200), His-tagged FcγR captured via anti-His IgG, antibody as analyte 0.04-25 µM, steady-state affinity; clear binding response
T5 construct: Bought protein; also called Fcγ RIIIa
Experimental: as §1, §2

Human Fcγ receptor IIa [6] = molecular target: T1, Human Fcγ receptor IIa; assay: SPR (Biacore T200), His-tagged FcγR captured via anti-His IgG, antibody as analyte, steady-state affinity
Experimental: as §1, §2

Human Fcγ receptor IIb/c [7] = molecular target: T2, Human Fcγ receptor IIb/c; assay: as above
Experimental: as §1, §2

Human Fcγ receptor I [8] = molecular target: T4, Human Fcγ receptor I; assay: as above
Experimental: as §1, §2

Human Fcγ receptor IIIa [9] = molecular target: T5, Human Fcγ receptor IIIa; assay: as above
Experimental: as §1, §2

Human Fcγ receptor IIIb [10] = molecular target: T3, Human Fcγ receptor IIIb; assay: as above
Experimental: as §1, §2

Human Fcγ receptor I [11] = molecular target: T4, Human Fcγ receptor I; assay: SPR (Biacore T200), His-tagged FcγR captured via anti-His IgG, antibody as analyte 0.04-25 µM, steady-state affinity; Table 3 experiment (engineered Fc variants), steady-state affinity
Experimental: as §1, §2

Human Fcγ receptor IIa [12] = molecular target: T1, Human Fcγ receptor IIa; assay: SPR (Biacore T200), His-tagged FcγR captured via anti-His IgG, antibody as analyte 0.04-25 µM, steady-state affinity
Experimental: as §1, §2

Human Fcγ receptor IIIa [13] = molecular target: T5, Human Fcγ receptor IIIa; assay: as above
Experimental: as §1, §2

Human Fcγ receptor IIb/c [14] = molecular target: T2, Human Fcγ receptor IIb/c; assay: SPR (Biacore T200), His-tagged FcγR captured via anti-His IgG, antibody as analyte 0.04-25 µM, steady-state affinity; clear binding response
Experimental: as §1, §2

Human Fcγ receptor IIIb [15] = molecular target: T3, Human Fcγ receptor IIIb; assay: as above
Experimental: as §1, §2

[16] = molecular target: T6, human CEACAM6 (carcinoembryonic antigen-related cell adhesion molecule 6) (human, UniProt P40199 35-320); assay: cell-based or functional assay
T6 sequence: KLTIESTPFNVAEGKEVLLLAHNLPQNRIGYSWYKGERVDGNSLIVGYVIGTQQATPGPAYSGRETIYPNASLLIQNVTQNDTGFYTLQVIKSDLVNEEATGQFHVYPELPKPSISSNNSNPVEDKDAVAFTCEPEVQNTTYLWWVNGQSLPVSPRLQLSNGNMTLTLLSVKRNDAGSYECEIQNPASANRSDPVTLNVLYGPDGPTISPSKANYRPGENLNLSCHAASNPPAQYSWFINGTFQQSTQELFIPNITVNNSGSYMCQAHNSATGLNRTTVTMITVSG

Human Fcγ receptor I [17] = molecular target: T4, Human Fcγ receptor I; assay: SPR (Biacore T200), His-tagged FcγR captured via anti-His IgG, antibody as analyte, steady-state
Experimental: as §1, §2

Human Fcγ receptor IIIa [18] = molecular target: T5, Human Fcγ receptor IIIa; assay: as above
Experimental: as §1, §2

T4 sequence (P12314 16-288 limits assumed): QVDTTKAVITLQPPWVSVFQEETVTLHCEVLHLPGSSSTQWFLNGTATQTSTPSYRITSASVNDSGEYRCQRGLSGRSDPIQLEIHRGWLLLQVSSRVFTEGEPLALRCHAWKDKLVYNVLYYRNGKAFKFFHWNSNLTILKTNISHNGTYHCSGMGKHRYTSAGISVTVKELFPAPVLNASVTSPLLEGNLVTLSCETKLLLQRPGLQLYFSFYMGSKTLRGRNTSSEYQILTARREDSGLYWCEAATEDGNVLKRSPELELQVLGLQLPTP
T5 sequence (P08637 17-208 limits assumed): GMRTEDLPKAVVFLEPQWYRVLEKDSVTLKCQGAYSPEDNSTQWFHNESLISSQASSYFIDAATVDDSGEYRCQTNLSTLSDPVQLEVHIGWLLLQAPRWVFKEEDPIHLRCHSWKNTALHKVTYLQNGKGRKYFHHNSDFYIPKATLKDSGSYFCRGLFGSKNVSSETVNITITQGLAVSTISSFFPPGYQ
T3 sequence (O75015 20-208 limits assumed): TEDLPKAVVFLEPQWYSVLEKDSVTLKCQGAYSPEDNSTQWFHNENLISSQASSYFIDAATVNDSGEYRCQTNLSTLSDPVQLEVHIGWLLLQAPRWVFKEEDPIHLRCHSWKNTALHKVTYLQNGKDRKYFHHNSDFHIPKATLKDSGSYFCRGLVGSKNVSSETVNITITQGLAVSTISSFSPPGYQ

B1: CEACAM6-Human IgG1-LALA (TPP-19919) (antibody)
heavy: not shown
light: DIQLTQSPSFLSASVGDRVTITCKASQNVGTAVAWYQQKPGKAPKLLIYSASNRYTGVPSRFSGSGSGTEFTLTISSLQPEDFATYYCQQYSSYPLTFGGGTKVEIKRTVAAPSVFIFPPSDEQLKSGTASVVCLLNNFYPREAKVQWKVDNALQSGNSQESVTEQDSKDSTYSLSSTLTLSKADYEKHKVYACEVTHQGLSSPVTKSFNRGEC
notes: Human IgG1 with L234A/L235A (EU numbering)
binding result (Human Fcγ receptor IIa [1]): no binding (tested: 0.04-25 µM)
binding result (Human Fcγ receptor IIb/c [2]): no binding (tested: 0.04-25 µM)
binding result (Human Fcγ receptor IIIb [3]): no binding (tested: 0.04-25 µM)
Kd (Human Fcγ receptor I [4]): 3.7 µM
Kd (Human Fcγ receptor IIIa [5]): > 25 µM

B2: CEACAM6-Human IgG1 (TPP-5468) (antibody)
heavy: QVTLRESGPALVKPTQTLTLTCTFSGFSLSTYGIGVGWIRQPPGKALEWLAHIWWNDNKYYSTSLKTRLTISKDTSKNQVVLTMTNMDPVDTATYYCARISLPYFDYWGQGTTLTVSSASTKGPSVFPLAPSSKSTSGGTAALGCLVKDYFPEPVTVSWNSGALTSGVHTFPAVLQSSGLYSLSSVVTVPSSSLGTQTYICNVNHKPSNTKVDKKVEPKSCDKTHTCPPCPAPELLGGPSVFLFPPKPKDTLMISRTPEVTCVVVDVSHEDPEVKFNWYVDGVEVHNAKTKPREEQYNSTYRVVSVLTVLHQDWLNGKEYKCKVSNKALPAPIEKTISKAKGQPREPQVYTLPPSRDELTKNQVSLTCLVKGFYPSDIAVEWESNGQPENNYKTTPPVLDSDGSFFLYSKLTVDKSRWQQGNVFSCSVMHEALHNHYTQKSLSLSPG
light: B1 light
notes: expressed in HEK293 cells; also called hIgG1; anti-CEACAM6 human IgG1 format
Kd (Human Fcγ receptor IIa [6]): 7.3 µM
Kd (Human Fcγ receptor IIb/c [7]): 11 µM
Kd (Human Fcγ receptor I [8]): 0.32 µM
Kd (Human Fcγ receptor IIIa [9]): 1 µM
Kd (Human Fcγ receptor IIIb [10]): 7.4 µM
Kd (Human Fcγ receptor I [11]): 0.016 µM
Kd (Human Fcγ receptor IIa [12]): 21 µM
Kd (Human Fcγ receptor IIIa [13]): 4.9 µM
Kd (Human Fcγ receptor IIb/c [14]): > 25 µM
Kd (Human Fcγ receptor IIIb [15]): > 25 µM

B4: CEACAM6-Human IgG1-aglyco (TPP-10914) (antibody)
heavy: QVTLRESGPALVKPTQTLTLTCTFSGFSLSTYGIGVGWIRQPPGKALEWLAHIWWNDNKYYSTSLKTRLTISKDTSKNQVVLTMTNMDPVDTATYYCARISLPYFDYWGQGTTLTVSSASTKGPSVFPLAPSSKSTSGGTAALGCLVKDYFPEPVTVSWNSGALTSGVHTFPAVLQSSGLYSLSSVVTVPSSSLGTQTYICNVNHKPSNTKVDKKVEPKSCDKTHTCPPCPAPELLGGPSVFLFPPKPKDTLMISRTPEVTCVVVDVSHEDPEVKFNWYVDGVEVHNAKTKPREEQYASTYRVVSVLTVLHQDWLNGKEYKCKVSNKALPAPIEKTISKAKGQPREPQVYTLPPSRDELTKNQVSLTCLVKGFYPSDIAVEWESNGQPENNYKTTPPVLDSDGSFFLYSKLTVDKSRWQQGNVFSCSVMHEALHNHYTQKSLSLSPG
light: B1 light
notes: Human IgG1 with N297A (EU numbering), aglycosylated
binding result (Human Fcγ receptor IIa [1]): no binding (tested: 0.04-25 µM)
binding result (Human Fcγ receptor IIb/c [2]): no binding (tested: 0.04-25 µM)
binding result (Human Fcγ receptor IIIa [18]): no binding (tested: 0.04-25 µM)
binding result (Human Fcγ receptor IIIb [3]): no binding (tested: 0.04-25 µM)
Kd (Human Fcγ receptor I [4]): 1.2 µM

More lines, main results first:

TILs IFNgamma production (co-culture with HCC2935 tumor cells), EC50 [16]: 0.7 µg/mL
B3: CEACAM6-Human IgG2 (TPP-3310) (antibody)
heavy: QVTLRESGPALVKPTQTLTLTCTFSGFSLSTYGIGVGWIRQPPGKALEWLAHIWWNDNKYYSTSLKTRLTISKDTSKNQVVLTMTNMDPVDTATYYCARISLPYFDYWGQGTTLTVSSASTKGPSVFPLAPCSRSTSESTAALGCLVKDYFPEPVTVSWNSGALTSGVHTFPAVLQSSGLYSLSSVVTVPSSNFGTQTYTCNVDHKPSNTKVDKTVERKCCVECPPCPAPPVAGPSVFLFPPKPKDTLMISRTPEVTCVVVDVSHEDPEVQFNWYVDGVEVHNAKTKPREEQFNSTFRVVSVLTVVHQDWLNGKEYKCKVSNKGLPAPIEKTISKTKGQPREPQVYTLPPSREEMTKNQVSLTCLVKGFYPSDIAVEWESNGQPENNYKTTPPMLDSDGSFFLYSKLTVDKSRWQQGNVFSCSVMHEALHNHYTQKSLSLSPG
light: B1 light
notes: Human IgG2; expressed in HEK293 cells
TILs mediated HCC2935 killing (xCELLigence impedance assay), EC50 [16]: 0.4 µg/mL
survivin specific T cells IFNgamma production (co-culture with HCC2935 tumor cells), EC50 [16]: 0.5 µg/mL
binding result (Human Fcγ receptor IIa [1]): no binding (tested: Highest concentration used was 16 µM)
binding result (Human Fcγ receptor I [17]): no binding (tested: Highest concentration used was 16 µM)
binding result (Human Fcγ receptor IIIb [3]): no binding (tested: Highest concentration used was 16 µM)

TILs IFNgamma production (co-culture with HCC2935 tumor cells), EC50 [16]: 0.5 µg/mL
binding result (Human Fcγ receptor IIa [1]): no binding (tested: 0.04-25 µM)
binding result (Human Fcγ receptor IIb/c [2]): no binding (tested: 0.04-25 µM)
binding result (Human Fcγ receptor I [17]): no binding (tested: 0.04-25 µM)
binding result (Human Fcγ receptor IIIa [18]): no binding (tested: 0.04-25 µM)
binding result (Human Fcγ receptor IIIb [3]): no binding (tested: 0.04-25 µM)
B5: CEACAM6-Human IgG1-LALAaglyco (TPP-21518) (antibody)
heavy: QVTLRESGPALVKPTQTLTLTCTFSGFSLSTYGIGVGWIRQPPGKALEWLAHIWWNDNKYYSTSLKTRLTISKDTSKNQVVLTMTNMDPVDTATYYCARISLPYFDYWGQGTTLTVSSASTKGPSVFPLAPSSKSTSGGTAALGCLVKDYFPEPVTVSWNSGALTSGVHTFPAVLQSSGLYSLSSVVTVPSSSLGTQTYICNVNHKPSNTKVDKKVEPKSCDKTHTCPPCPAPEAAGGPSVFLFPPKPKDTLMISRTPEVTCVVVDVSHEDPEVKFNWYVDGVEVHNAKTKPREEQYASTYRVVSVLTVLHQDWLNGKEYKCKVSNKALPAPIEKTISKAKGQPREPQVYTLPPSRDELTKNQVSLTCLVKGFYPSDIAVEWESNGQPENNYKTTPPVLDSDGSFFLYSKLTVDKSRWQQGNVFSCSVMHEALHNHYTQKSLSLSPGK
light: B1 light
notes: Human IgG1 with L234A/L235A/N297A (EU numbering); also called IgG1 LALAaglyco anti-CEACAM6 antibody
TILs mediated HCC2935 killing (xCELLigence impedance assay, 100 h), EC50 [16]: 0.43 µg/mL
survivin specific T cells IFNgamma production (co-culture with HCC2935 tumor cells), EC50 [16]: 0.55 µg/mL
